The RNAGym collection of RNA variant scans (doi:10.1021/acssynbio.7b00057)

B1: Pistol ribozyme (parent)
chain: GGGUCGUUGUUCCAUAAUCGCGUGGAUAUGGCACGCAAGUUUCUACCGGGCACCGUAAAUGUCCGACUGGAGCCGUUCGGGCGGCUAUAAACAGACCUCAGGCCCGAAGCGUGGCGGCACCUGCCGCCGGUGGUAAAAAAGAUCGGAAGAGCACACGUCU

Variants of: B1
Test: aptazyme ON/OFF ratio, guanine; higher = stronger switching; co-transcriptional cleavage with and without guanine

In order of rising “aptazyme ON/OFF ratio” value:
1. GGGUCGUUGACCUAUAAUCGCGUGGAUAUGGCACGCAAGUUUCUACCGGGCACCGUAAAUGUCCGACUGGAGCCGUUCGGGCGGCUAUAAACAGACCUCAGGCCCGAAGCGUGGCGGCACCUGCCGCCGGUGGUAAAAAAGAUCGGAAGAGCACACGUCU  1.01
2. GGGUCGUUGACCAAUAAUCGCGUGGAUAUGGCACGCAAGUUUCUACCGGGCACCGUAAAUGUCCGACUGGAGCCGUUCGGGCGGCUAUAAACAGACCUCAGGCCCGAAGCGUGGCGGCACCUGCCGCCGGUGGUAAAAAAGAUCGGAAGAGCACACGUCU  1.02
3. GGGUCGUUGACUUAUAAUCGCGUGGAUAUGGCACGCAAGUUUCUACCGGGCACCGUAAAUGUCCGACUGGAGCCGUUCGGGCGGCUAUAAACAGACCUCAGGCCCGAAGCGUGGCGGCACCUGCCGCCGGUGGUAAAAAAGAUCGGAAGAGCACACGUCU  1.03
4. GGGUCGUUGAGAAAUAAUCGCGUGGAUAUGGCACGCAAGUUUCUACCGGGCACCGUAAAUGUCCGACUGGAGCCGUUCGGGCGGCUAUAAACAGACCUCAGGCCCGAAGCGUGGCGGCACCUGCCGCCGGUGGUAAAAAAGAUCGGAAGAGCACACGUCU  1.04
5. GGGUCGUUGACUCAUAAUCGCGUGGAUAUGGCACGCAAGUUUCUACCGGGCACCGUAAAUGUCCGACUGGAGCCGUUCGGGCGGCUAUAAACAGACCUCAGGCCCGAAGCGUGGCGGCACCUGCCGCCGGUGGUAAAAAAGAUCGGAAGAGCACACGUCU  1.04
6. GGGUCGUUGACCGAUAAUCGCGUGGAUAUGGCACGCAAGUUUCUACCGGGCACCGUAAAUGUCCGACUGGAGCCGUUCGGGCGGCUAUAAACAGACCUCAGGCCCGAAGCGUGGCGGCACCUGCCGCCGGUGGUAAAAAAGAUCGGAAGAGCACACGUCU  1.04
7. GGGUCGUUGACUAAUAAUCGCGUGGAUAUGGCACGCAAGUUUCUACCGGGCACCGUAAAUGUCCGACUGGAGCCGUUCGGGCGGCUAUAAACAGACCUCAGGCCCGAAGCGUGGCGGCACCUGCCGCCGGUGGUAAAAAAGAUCGGAAGAGCACACGUCU  1.06
8. GGGUCGUUGACUGAUAAUCGCGUGGAUAUGGCACGCAAGUUUCUACCGGGCACCGUAAAUGUCCGACUGGAGCCGUUCGGGCGGCUAUAAACAGACCUCAGGCCCGAAGCGUGGCGGCACCUGCCGCCGGUGGUAAAAAAGAUCGGAAGAGCACACGUCU  1.08
9. GGGUCGUUGCUGGAUAAUCGCGUGGAUAUGGCACGCAAGUUUCUACCGGGCACCGUAAAUGUCCGACUGGAGCCGUUCGGGCGGCUAUAAACAGACCUCAGGCCCGAAGCGUGGCGGCACCUGCCGCCGGUGGUAAAAAAGAUCGGAAGAGCACACGUCU  1.09
10. GGGUCGUUGAGACAUAAUCGCGUGGAUAUGGCACGCAAGUUUCUACCGGGCACCGUAAAUGUCCGACUGGAGCCGUUCGGGCGGCUAUAAACAGACCUCAGGCCCGAAGCGUGGCGGCACCUGCCGCCGGUGGUAAAAAAGAUCGGAAGAGCACACGUCU  1.13
11. GGGUCGUUGACGAAUAAUCGCGUGGAUAUGGCACGCAAGUUUCUACCGGGCACCGUAAAUGUCCGACUGGAGCCGUUCGGGCGGCUAUAAACAGACCUCAGGCCCGAAGCGUGGCGGCACCUGCCGCCGGUGGUAAAAAAGAUCGGAAGAGCACACGUCU  1.15
12. GGGUCGUUGACGCAUAAUCGCGUGGAUAUGGCACGCAAGUUUCUACCGGGCACCGUAAAUGUCCGACUGGAGCCGUUCGGGCGGCUAUAAACAGACCUCAGGCCCGAAGCGUGGCGGCACCUGCCGCCGGUGGUAAAAAAGAUCGGAAGAGCACACGUCU  1.15
13. GGGUCGUUGCUAUAUAAUCGCGUGGAUAUGGCACGCAAGUUUCUACCGGGCACCGUAAAUGUCCGACUGGAGCCGUUCGGGCGGCUAUAAACAGACCUCAGGCCCGAAGCGUGGCGGCACCUGCCGCCGGUGGUAAAAAAGAUCGGAAGAGCACACGUCU  1.18
14. GGGUCGUUGCUAGAUAAUCGCGUGGAUAUGGCACGCAAGUUUCUACCGGGCACCGUAAAUGUCCGACUGGAGCCGUUCGGGCGGCUAUAAACAGACCUCAGGCCCGAAGCGUGGCGGCACCUGCCGCCGGUGGUAAAAAAGAUCGGAAGAGCACACGUCU  1.19
15. GGGUCGUUGAGCGAUAAUCGCGUGGAUAUGGCACGCAAGUUUCUACCGGGCACCGUAAAUGUCCGACUGGAGCCGUUCGGGCGGCUAUAAACAGACCUCAGGCCCGAAGCGUGGCGGCACCUGCCGCCGGUGGUAAAAAAGAUCGGAAGAGCACACGUCU  1.19
16. GGGUCGUUGCUAAAUAAUCGCGUGGAUAUGGCACGCAAGUUUCUACCGGGCACCGUAAAUGUCCGACUGGAGCCGUUCGGGCGGCUAUAAACAGACCUCAGGCCCGAAGCGUGGCGGCACCUGCCGCCGGUGGUAAAAAAGAUCGGAAGAGCACACGUCU  1.23
17. GGGUCGUUGACGUAUAAUCGCGUGGAUAUGGCACGCAAGUUUCUACCGGGCACCGUAAAUGUCCGACUGGAGCCGUUCGGGCGGCUAUAAACAGACCUCAGGCCCGAAGCGUGGCGGCACCUGCCGCCGGUGGUAAAAAAGAUCGGAAGAGCACACGUCU  1.23
18. GGGUCGUUGACAUAUAAUCGCGUGGAUAUGGCACGCAAGUUUCUACCGGGCACCGUAAAUGUCCGACUGGAGCCGUUCGGGCGGCUAUAAACAGACCUCAGGCCCGAAGCGUGGCGGCACCUGCCGCCGGUGGUAAAAAAGAUCGGAAGAGCACACGUCU  1.23
19. GGGUCGUUGAGAGAUAAUCGCGUGGAUAUGGCACGCAAGUUUCUACCGGGCACCGUAAAUGUCCGACUGGAGCCGUUCGGGCGGCUAUAAACAGACCUCAGGCCCGAAGCGUGGCGGCACCUGCCGCCGGUGGUAAAAAAGAUCGGAAGAGCACACGUCU  1.23
20. GGGUCGUUGAGUGAUAAUCGCGUGGAUAUGGCACGCAAGUUUCUACCGGGCACCGUAAAUGUCCGACUGGAGCCGUUCGGGCGGCUAUAAACAGACCUCAGGCCCGAAGCGUGGCGGCACCUGCCGCCGGUGGUAAAAAAGAUCGGAAGAGCACACGUCU  1.24
21. GGGUCGUUGCUGAAUAAUCGCGUGGAUAUGGCACGCAAGUUUCUACCGGGCACCGUAAAUGUCCGACUGGAGCCGUUCGGGCGGCUAUAAACAGACCUCAGGCCCGAAGCGUGGCGGCACCUGCCGCCGGUGGUAAAAAAGAUCGGAAGAGCACACGUCU  1.24
22. GGGUCGUUGAGUUAUAAUCGCGUGGAUAUGGCACGCAAGUUUCUACCGGGCACCGUAAAUGUCCGACUGGAGCCGUUCGGGCGGCUAUAAACAGACCUCAGGCCCGAAGCGUGGCGGCACCUGCCGCCGGUGGUAAAAAAGAUCGGAAGAGCACACGUCU  1.27
23. GGGUCGUUGAGGAAUAAUCGCGUGGAUAUGGCACGCAAGUUUCUACCGGGCACCGUAAAUGUCCGACUGGAGCCGUUCGGGCGGCUAUAAACAGACCUCAGGCCCGAAGCGUGGCGGCACCUGCCGCCGGUGGUAAAAAAGAUCGGAAGAGCACACGUCU  1.27
24. GGGUCGUUGACGGAUAAUCGCGUGGAUAUGGCACGCAAGUUUCUACCGGGCACCGUAAAUGUCCGACUGGAGCCGUUCGGGCGGCUAUAAACAGACCUCAGGCCCGAAGCGUGGCGGCACCUGCCGCCGGUGGUAAAAAAGAUCGGAAGAGCACACGUCU  1.29
25. GGGUCGUUGAGCAAUAAUCGCGUGGAUAUGGCACGCAAGUUUCUACCGGGCACCGUAAAUGUCCGACUGGAGCCGUUCGGGCGGCUAUAAACAGACCUCAGGCCCGAAGCGUGGCGGCACCUGCCGCCGGUGGUAAAAAAGAUCGGAAGAGCACACGUCU  1.33
26. GGGUCGUUGCUGCAUAAUCGCGUGGAUAUGGCACGCAAGUUUCUACCGGGCACCGUAAAUGUCCGACUGGAGCCGUUCGGGCGGCUAUAAACAGACCUCAGGCCCGAAGCGUGGCGGCACCUGCCGCCGGUGGUAAAAAAGAUCGGAAGAGCACACGUCU  1.36
27. GGGUCGUUGAGCUAUAAUCGCGUGGAUAUGGCACGCAAGUUUCUACCGGGCACCGUAAAUGUCCGACUGGAGCCGUUCGGGCGGCUAUAAACAGACCUCAGGCCCGAAGCGUGGCGGCACCUGCCGCCGGUGGUAAAAAAGAUCGGAAGAGCACACGUCU  1.37
28. GGGUCGUUGAGGGAUAAUCGCGUGGAUAUGGCACGCAAGUUUCUACCGGGCACCGUAAAUGUCCGACUGGAGCCGUUCGGGCGGCUAUAAACAGACCUCAGGCCCGAAGCGUGGCGGCACCUGCCGCCGGUGGUAAAAAAGAUCGGAAGAGCACACGUCU  1.42
29. GGGUCGUUGAGGUAUAAUCGCGUGGAUAUGGCACGCAAGUUUCUACCGGGCACCGUAAAUGUCCGACUGGAGCCGUUCGGGCGGCUAUAAACAGACCUCAGGCCCGAAGCGUGGCGGCACCUGCCGCCGGUGGUAAAAAAGAUCGGAAGAGCACACGUCU  1.43
30. GGGUCGUUGAGAUAUAAUCGCGUGGAUAUGGCACGCAAGUUUCUACCGGGCACCGUAAAUGUCCGACUGGAGCCGUUCGGGCGGCUAUAAACAGACCUCAGGCCCGAAGCGUGGCGGCACCUGCCGCCGGUGGUAAAAAAGAUCGGAAGAGCACACGUCU  1.46
31. GGGUCGUUGCUACAUAAUCGCGUGGAUAUGGCACGCAAGUUUCUACCGGGCACCGUAAAUGUCCGACUGGAGCCGUUCGGGCGGCUAUAAACAGACCUCAGGCCCGAAGCGUGGCGGCACCUGCCGCCGGUGGUAAAAAAGAUCGGAAGAGCACACGUCU  1.51
32. GGGUCGUUGAGUCAUAAUCGCGUGGAUAUGGCACGCAAGUUUCUACCGGGCACCGUAAAUGUCCGACUGGAGCCGUUCGGGCGGCUAUAAACAGACCUCAGGCCCGAAGCGUGGCGGCACCUGCCGCCGGUGGUAAAAAAGAUCGGAAGAGCACACGUCU  1.52
33. GGGUCGUUGAGGCAUAAUCGCGUGGAUAUGGCACGCAAGUUUCUACCGGGCACCGUAAAUGUCCGACUGGAGCCGUUCGGGCGGCUAUAAACAGACCUCAGGCCCGAAGCGUGGCGGCACCUGCCGCCGGUGGUAAAAAAGAUCGGAAGAGCACACGUCU  1.55
34. GGGUCGUUGAGUAAUAAUCGCGUGGAUAUGGCACGCAAGUUUCUACCGGGCACCGUAAAUGUCCGACUGGAGCCGUUCGGGCGGCUAUAAACAGACCUCAGGCCCGAAGCGUGGCGGCACCUGCCGCCGGUGGUAAAAAAGAUCGGAAGAGCACACGUCU  1.62
35. GGGUCGUUGAGCCAUAAUCGCGUGGAUAUGGCACGCAAGUUUCUACCGGGCACCGUAAAUGUCCGACUGGAGCCGUUCGGGCGGCUAUAAACAGACCUCAGGCCCGAAGCGUGGCGGCACCUGCCGCCGGUGGUAAAAAAGAUCGGAAGAGCACACGUCU  2.01
36. GGGUCGUUGCUCCAUAAUCGCGUGGAUAUGGCACGCAAGUUUCUACCGGGCACCGUAAAUGUCCGACUGGAGCCGUUCGGGCGGCUAUAAACAGACCUCAGGCCCGAAGCGUGGCGGCACCUGCCGCCGGUGGUAAAAAAGAUCGGAAGAGCACACGUCU  3.69
